The Kd is the free concentration of one partner at which half of the binding sites on the other are occupied at equilibrium, for simple one-to-one binding.

Results on 4 molecules are retold here after PMC9700808, “Poly ADP-ribosylation of SET8 leads to aberrant H4K20 methylation in mammalian nuclear genome” (Communications Biology, 2021).

One data set concerns the target T1, His-SET8 (UniProt Q9NQR1-2 1-352).
T1 sequence: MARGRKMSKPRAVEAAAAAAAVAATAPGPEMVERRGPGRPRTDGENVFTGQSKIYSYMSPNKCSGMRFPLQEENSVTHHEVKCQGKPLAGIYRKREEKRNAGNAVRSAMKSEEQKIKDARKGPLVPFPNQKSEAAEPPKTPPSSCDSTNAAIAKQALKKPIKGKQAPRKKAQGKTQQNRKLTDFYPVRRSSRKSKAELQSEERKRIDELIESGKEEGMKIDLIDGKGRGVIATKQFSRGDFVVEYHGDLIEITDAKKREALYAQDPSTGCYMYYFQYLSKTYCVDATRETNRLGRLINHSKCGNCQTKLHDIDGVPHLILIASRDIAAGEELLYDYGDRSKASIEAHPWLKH
The experiment in a line: EMSA; 2 mM MgCl2; GRB buffer: 20 mM HEPES pH 7.5, 10% glycerol, 25 mM KCl, 0.1 mM EDTA, 1 mM DTT, 2 mM MgCl2, 0.2% NP40; on ice 10-15 min; 6% TBE gel, 0.5x TBE, 4 C. To be noted: protein: recombinant; tags: His; label: Cy3 (end); hairpin, 10 bp stem with AAA loop. Background: A gel shift assay detects complexes by their altered migration in electrophoresis.

In data set [1] the target is T2, full-length recombinant PARP1 protein (UniProt P09874 1-1014).
T2 construct: PARP1, full-length recombinant protein bought from Active Motif; also called purified PARP1; PARP1 recombinant enzyme; source: bought: Active Motif (# 81037)
Put plainly: pull-down; GST-SET8 fusions on glutathione-Sepharose beads, full-length recombinant PARP1 in solution; 1X PBS with 0.1% Triton X-100, 100 µg/ml BSA, 4 °C, 1 h; washes with 1% Triton X-100; western blot with anti-PARP1. The conditions noted are these: both partners purified. Background: In western blotting, separated proteins are transferred to a membrane and probed.

T2 sequence (P09874 whole entry): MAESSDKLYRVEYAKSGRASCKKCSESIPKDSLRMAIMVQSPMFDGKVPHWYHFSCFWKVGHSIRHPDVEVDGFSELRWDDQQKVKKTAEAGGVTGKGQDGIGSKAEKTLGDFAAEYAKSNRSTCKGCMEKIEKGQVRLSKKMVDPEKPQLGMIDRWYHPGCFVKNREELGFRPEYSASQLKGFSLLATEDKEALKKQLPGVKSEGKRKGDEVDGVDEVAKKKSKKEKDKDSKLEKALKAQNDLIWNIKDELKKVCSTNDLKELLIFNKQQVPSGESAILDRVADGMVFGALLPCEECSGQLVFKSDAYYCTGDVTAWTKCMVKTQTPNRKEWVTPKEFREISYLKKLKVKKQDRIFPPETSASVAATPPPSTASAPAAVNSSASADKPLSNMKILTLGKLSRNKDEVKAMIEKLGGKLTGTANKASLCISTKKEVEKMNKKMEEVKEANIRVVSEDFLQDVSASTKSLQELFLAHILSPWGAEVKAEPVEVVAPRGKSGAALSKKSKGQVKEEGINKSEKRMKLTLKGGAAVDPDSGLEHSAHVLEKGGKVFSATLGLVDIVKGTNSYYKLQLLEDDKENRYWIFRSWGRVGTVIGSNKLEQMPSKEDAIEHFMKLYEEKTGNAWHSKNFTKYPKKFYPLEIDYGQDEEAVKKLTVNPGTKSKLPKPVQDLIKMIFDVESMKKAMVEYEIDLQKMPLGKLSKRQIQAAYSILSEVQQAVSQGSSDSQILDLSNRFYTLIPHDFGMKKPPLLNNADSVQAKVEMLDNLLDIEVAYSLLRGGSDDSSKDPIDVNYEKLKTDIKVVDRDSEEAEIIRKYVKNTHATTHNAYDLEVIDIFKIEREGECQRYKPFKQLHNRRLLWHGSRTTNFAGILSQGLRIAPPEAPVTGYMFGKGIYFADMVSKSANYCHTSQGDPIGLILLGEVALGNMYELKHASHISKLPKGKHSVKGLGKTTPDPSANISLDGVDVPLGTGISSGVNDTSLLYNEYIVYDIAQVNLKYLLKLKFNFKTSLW

For the molecule GGGAATTCCCAAAGGGAATTCCC (structured_DNA) [EcoRI hairpin oligonucleotide], the Kd with His-SET8 stood at 1600 ± 600 nM.

B1: full-length GST fusion SET8 (GST-SET8 FL) (enzyme, UniProt Q9NQR1-2 1-352, looked up)
chain: T1 sequence
notes: SET8 (KMT5A), full length; printed numbering runs to 352 (fragments 157-352, 175-352); vector pGEX5X.1; source: E. coli ER2566, purified, on glutathione-Sepharose beads
For B1, the binding result in data set [1] is recorded as “binds”.

B2: GST-SET8 disorder domain 80-230 (domain or fragment, UniProt Q9NQR1-2 80-230, looked up)
chain: EVKCQGKPLAGIYRKREEKRNAGNAVRSAMKSEEQKIKDARKGPLVPFPNQKSEAAEPPKTPPSSCDSTNAAIAKQALKKPIKGKQAPRKKAQGKTQQNRKLTDFYPVRRSSRKSKAELQSEERKRIDELIESGKEEGMKIDLIDGKGRGV
notes: SET8 (KMT5A) disorder domain, residues 80-230; printed numbering runs to 352; vector pGEX5X.1; primers in Supplementary File 1; also called GST-SET8 DD; disorder domain (DD); source: E. coli ER2566, purified, on glutathione-Sepharose beads
As for B2, in data set [1], the binding result is reported as “binds”.

B3: GST-SET8 N-terminal 1-98 (domain or fragment, UniProt Q9NQR1-2 1-98, looked up)
chain: MARGRKMSKPRAVEAAAAAAAVAATAPGPEMVERRGPGRPRTDGENVFTGQSKIYSYMSPNKCSGMRFPLQEENSVTHHEVKCQGKPLAGIYRKREEK
notes: SET8 (KMT5A) residues 1-98; vector pGEX5X.1; primers in Supplementary File 1; also called N-terminal 1–98 amino acids; source: E. coli ER2566, purified, on glutathione-Sepharose beads
In the case of B3, the binding result in data set [1] is “binds”.
